# Residue numbers refer to the chain shown, from its start. In names and notes the source's numbering stands. Read-outs that look alike come from different tables or passages of the source.
# B1: wild-type human β-cardiac myosin short subfragment 1 (sS1) with C-terminal 6× His tag (complex)
# chain 1: MGDSEMAVFGAAAPYLRKSEKERLEAQTRPFDLKKDVFVPDDKQEFVKAKIVSREGGKVTAETEYGKTVTVKEDQVMQQNPPKFDKIEDMAMLTFLHEPAVLYNLKDRYGSWMIYTYSGLFCVTVNPYKWLPVYTPEVVAAYRGKKRSEAPPHIFSISDNAYQYMLTDRENQSILITGESGAGKTVNTKRVIQYFAVIAAIGDRSKKDQSPGKGTLEDQIIQANPALEAFGNAKTVRNDNSSRFGKFIRIHFGATGKLASADIETYLLEKSRVIFQLKAERDYHIFYQILSNKKPELLDMLLITNNPYDYAFISQGETTVASIDDAEELMATDNAFDVLGFTSEEKNSMYKLTGAIMHFGNMKFKLKQREEQAEPDGTEEADKSAYLMGLNSADLLKGLCHPRVKVGNEYVTKGQNVQQVIYATGALAKAVYERMFNWMVTRINATLETKQPRQYFIGVLDIAGFEIFDFNSFEQLCINFTNEKLQQFFNHHMFVLEQEEYKKEGIEWTFIDFGMDLQACIDLIEKPMGIMSILEEECMFPKATDMTFKAKLFDNHLGKSANFQKPRNIKGKPEAHFSLIHYAGIVDYNIIGWLQKNKDPLNETVVGLYQKSSLKLLSTLFANYAGADAPIEKGKGKAKKGSSFQTVSALHRENLNKLMTNLRSTHPHFVRCIIPNETKSPGVMDNPLVMHQLRCNGVLEGIRICRKGFPNRILYGDFRQRYRILNPAAIPEGQFIDSRKGAEKLLSSLDIDHNQYKFGHTKVFFKAGLLGLLEEMRDERLSRIITRIQAQSRGVLARMEYKKLLERR
# chain 2: not shown
# B2: R403Q human β-cardiac myosin short subfragment 1 (sS1) with C-terminal 6× His tag (complex)
# chain 1: B1 chain 1 with R403Q
# chain 2: not shown
# How the values were obtained:
# [1] = target: T1, rabbit skeletal muscle actin, pyrene-labelled, phalloidin-stabilized (rabbit, UniProt P68135 1-377, pyrene (labelled with pyrene-maleimide)); assay: other fluorescence titration
# [2] = target: T1, rabbit skeletal muscle actin, …; assay: other fluorescence titration; remark: listed apart in the source
Binder,Kd [1] [nM],Kd [2] [nM]
B1,23.4 ± 2.5,10 ± 1.8
B2,63.2 ± 16.7,19.7 ± 6.2
